{
  "source": "patent US20180111975",
  "experiment_in_all_cases": "cell_activity",
  "key": {"ZFN 51463 (synthetic)": {"test_system": "ZFN 51463 (synthetic)", "settings": "paired with 51536, CD34+ cells"}, "ZFN 51446 (synthetic)": {"test_system": "ZFN 51446 (synthetic)", "settings": "paired with 51536, CD34+ cells"}, "ZFN 51862 (synthetic)": {"test_system": "ZFN 51862 (synthetic)", "settings": "paired with 51949, CD34+ cells, 500 ng mRNA each"}, "ZFN 51856 (synthetic)": {"test_system": "ZFN 51856 (synthetic)", "settings": "paired with 51949, CD34+ cells, 500 ng mRNA each"}, "ZFN 51484 (synthetic)": {"test_system": "ZFN 51484 (synthetic)", "settings": "paired with 51536, CD34+ cells"}, "ZFN 51477 (synthetic)": {"test_system": "ZFN 51477 (synthetic)", "settings": "paired with 51536, CD34+ cells"}, "ZFN 51487 (synthetic)": {"test_system": "ZFN 51487 (synthetic)", "settings": "paired with 51536, CD34+ cells"}, "ZFN 51478 (synthetic)": {"test_system": "ZFN 51478 (synthetic)", "settings": "paired with 51536, CD34+ cells"}, "ZFN 46801 (synthetic)": {"test_system": "ZFN 46801 (synthetic)", "settings": "paired with 47923, K562, 25 ng each"}, "ZFN 51541 (synthetic)": {"test_system": "ZFN 51541 (synthetic)", "settings": "paired with 51446, CD34+ cells"}, "ZFN 51993 (synthetic)": {"test_system": "ZFN 51993 (synthetic)", "settings": "paired with 51857, CD34+ cells, 500 ng mRNA each"}, "ZFN 47923 (synthetic)": {"test_system": "ZFN 47923 (synthetic)", "settings": "paired with 46801, K562, 25 ng each"}, "ZFN 51534 (synthetic)": {"test_system": "ZFN 51534 (synthetic)", "settings": "paired with 51446, CD34+ cells"}, "ZFN 51979 (synthetic)": {"test_system": "ZFN 51979 (synthetic)", "settings": "paired with 51857, CD34+ cells, 500 ng mRNA each"}, "ZFN 51535 (synthetic)": {"test_system": "ZFN 51535 (synthetic)", "settings": "paired with 51446, CD34+ cells"}, "ZFN 51536 (synthetic)": {"test_system": "ZFN 51536 (synthetic)", "settings": "paired with 51446, CD34+ cells"}, "ZFN 52015 (synthetic)": {"test_system": "ZFN 52015 (synthetic)", "settings": "paired with 51857, CD34+ cells, 500 ng mRNA each"}, "ZFN 52032 (synthetic)": {"test_system": "ZFN 52032 (synthetic)", "settings": "paired with 51857, CD34+ cells, 500 ng mRNA each"}, "ZFN 51519 (synthetic)": {"test_system": "ZFN 51519 (synthetic)", "settings": "paired with 51446, CD34+ cells"}, "ZFN 51556 (synthetic)": {"test_system": "ZFN 51556 (synthetic)", "settings": "paired with 51446, CD34+ cells"}, "ZFN 51990 (synthetic)": {"test_system": "ZFN 51990 (synthetic)", "settings": "paired with 51857, CD34+ cells, 500 ng mRNA each"}, "ZFN 51982 (synthetic)": {"test_system": "ZFN 51982 (synthetic)", "settings": "paired with 51857, CD34+ cells, 500 ng mRNA each"}},
  "data": [
    {"sequence": "AAAGCAACTGTTAGCTTGCACTAGACTA (double strand) [BCL11A +58 enhancer left half-site, 4-finger]", "values": [
      {"measurement": "activity", "setting": "ZFN 51463 (synthetic)", "value": 82.7, "unit": "% indels"},
      {"measurement": "activity", "setting": "ZFN 51446 (synthetic)", "value": 83.7, "unit": "% indels"}
    ]},
    {"sequence": "AAAGCAACTGTTAGCTTGCACTAGACTA (double strand) [BCL11A +58 enhancer left half-site, 6-finger]", "values": [
      {"measurement": "activity", "setting": "ZFN 51862 (synthetic)", "value": 18.4, "unit": "% indels"},
      {"measurement": "activity", "setting": "ZFN 51856 (synthetic)", "value": 38.4, "unit": "% indels"},
      {"measurement": "activity", "setting": "ZFN 51484 (synthetic)", "value": 75.2, "unit": "% indels"},
      {"measurement": "activity", "setting": "ZFN 51477 (synthetic)", "value": 72, "unit": "% indels"},
      {"measurement": "activity", "setting": "ZFN 51487 (synthetic)", "value": 66.3, "unit": "% indels"},
      {"measurement": "activity", "setting": "ZFN 51478 (synthetic)", "value": 72.3, "unit": "% indels"},
      {"measurement": "activity", "setting": "ZFN 46801 (synthetic)", "value": 9.3, "unit": "% NHEJ"}
    ]},
    {"sequence": "CACAGGCTCCAGGAAGGGTTTGGCCTCT (double strand) [BCL11A +58 enhancer right half-site]", "values": [
      {"measurement": "activity", "setting": "ZFN 51541 (synthetic)", "value": 87.8, "unit": "% indels"},
      {"measurement": "activity", "setting": "ZFN 51993 (synthetic)", "value": 43.9, "unit": "% indels"},
      {"measurement": "activity", "setting": "ZFN 47923 (synthetic)", "value": 9.3, "unit": "% NHEJ"},
      {"measurement": "activity", "setting": "ZFN 51534 (synthetic)", "value": 84.2, "unit": "% indels"},
      {"measurement": "activity", "setting": "ZFN 51979 (synthetic)", "value": 39.8, "unit": "% indels"},
      {"measurement": "activity", "setting": "ZFN 51535 (synthetic)", "value": 82.2, "unit": "% indels"},
      {"measurement": "activity", "setting": "ZFN 51536 (synthetic)", "value": 83.7, "unit": "% indels"},
      {"measurement": "activity", "setting": "ZFN 52015 (synthetic)", "value": 35.2, "unit": "% indels"},
      {"measurement": "activity", "setting": "ZFN 52032 (synthetic)", "value": 53.9, "unit": "% indels"},
      {"measurement": "activity", "setting": "ZFN 51519 (synthetic)", "value": 81.5, "unit": "% indels"},
      {"measurement": "activity", "setting": "ZFN 51556 (synthetic)", "value": 74.1, "unit": "% indels"},
      {"measurement": "activity", "setting": "ZFN 51990 (synthetic)", "value": 51, "unit": "% indels"},
      {"measurement": "activity", "setting": "ZFN 51982 (synthetic)", "value": 30.9, "unit": "% indels"}
    ]}
  ]
}
